We go through one substance from article PMC4204861.

In this assay the target is rEag1-Δeag (rat).

Substance “rEag1 eag domain fragment (domain or fragment)” gave a slow phase of inactivation of rEag1-Δeag (10- or 40-sec test pulses), two-electrode voltage clamp in Xenopus oocytes, co-expression (% reduction in current amplitude) of 60.
